The values that follow come from the supplement of paper PMC9170038.

In this series the test system is MS2 coat protein. Kind of series: apparent KD of MS2 coat protein; designed switch direction (-1 OFF switch, 1 ON switch): -1; higher = weaker reporter binding. In a few lines: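 Three titration conditions were used: no input, 200 uM small-molecule ligand, and an oligonucleotide input. In each, SNAP-549-labelled MS2 coat protein was raised from 0.7 or 1.5 nM, doubling, to 3 µM over designed RNA switches transcribed on Illumina chips by stalled E. coli RNA polymerase. Curve fits of normalised cluster fluorescence gave values whose per-design median over clusters is the apparent KD.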

Setting [1] is: Eterna round: R95, input ligand: microRNA oligo, concentration not stated.
[2] abbreviates: Eterna round: R95, input ligand: FMN 200 uM.
[3] abbreviates: Eterna round: R95, input ligand: none.
The mark [4] stands for this setting: input ligand: microRNA oligo, concentration not stated.

Take “GAUUAACAUGAGGAUCACCCAUGUGAGGAUAUUGACUUGCUCACUUUCCCAUUUGAGUCGAGAAGGCGCAUCUG [1986#22] (Eterna round: R97, puzzle: Exclusion 1)”: the “apparent KD of MS2 coat protein” value is, setting by setting: (input ligand: FMN 200 uM) 0.0688 µM; (input ligand: none) 0.039 µM.

On to “GUGUACGGAGGAUAUAUGUGGCGAGCAUACGCUCGAGCUUCACAUGAGGAUCACCCAUGUAGAAGGCUGUGCAC [JL-ex2-2.12 Brourd mod] (puzzle: Exclusion 2)”, for which the “apparent KD of MS2 coat protein” value under setting [1] amounted to 0.0179 µM.

For the sequence “CUGGUCCGAGGAUAUAUUUUGUGAAACAUGAGGAUCACCCAUGUAAUAAAAUGGAUAUAAAUAGAAGGCGGACUAG [Mat - Exclusion 5 - JL mod - D41] (puzzle: Exclusion 5)”, the “apparent KD of MS2 coat protein” value reads like this: under setting [2], 0.0251 µM; under setting [1], 0.021 µM; under setting [3], 0.0181 µM.

Turning to “CUGAGAUGAGGAUAUACAUGAGGAUCACCCAUGUAAAGUAGCUUGCGUACAGGCAGAUGUAGAAGGCAUUUCGG [Mod of JL 4 - Jieux - Exclusion 3] (Eterna round: R97, puzzle: Exclusion 3)”, the “apparent KD of MS2 coat protein” value reads like this: (input ligand: FMN 200 uM) 0.0447 µM; (input ligand: none) 0.0253 µM.

As for “CCUCAGUAAGGAUAUCAGCUUAAGGAGGUGGUAAAGAGAGCUGAGAAGGUACAUGAGGAUCACCCAUGUUAAAA [Zatite] (Eterna round: R96, puzzle: Exclusion 4)”, the “apparent KD of MS2 coat protein” value by setting is: (input ligand: FMN 200 uM) 0.193 µM; under setting [4], 0.0471 µM; (input ligand: none) 0.0572 µM.

Turning to “UGGAGAUAUAAGGAUAUAUUAGGAGGAGAGGAAAUAGAAGGUGUAACAUGAGGAUCACCCAUGUACCUCAUGUA [Default title] (Eterna round: R97, puzzle: Exclusion 6)”, the “apparent KD of MS2 coat protein” value by setting is: (input ligand: FMN 200 uM) 0.693 µM; (input ligand: none) 0.985 µM.

“GUUAUGUAAGGAUAUAUGAGUCACGGUGAUACACCGUGAAGAUAGAAGGUACAUGAGGAUCACCCAUGUAAGGC [Mod of Anonveat 10 - Jieux - Exclusion 4] (Eterna round: R97, puzzle: Exclusion 4)”: the “apparent KD of MS2 coat protein” value runs as follows: (input ligand: FMN 200 uM) 0.0322 µM; (input ligand: none) 0.0254 µM.

In the case of “UUUUAGCAAGCGAGAAUUAACAUGAGGAUCACCCAUGUGCAUCCAGAAUUACUUUUAGAACAAGCUCGUCUUAUAUA [JR_STOV1_v2_Sub081] (Eterna round: R97, puzzle: Sensor, turn-off variant 1)”, the “apparent KD of MS2 coat protein” value is, setting by setting: (input ligand: FMN 200 uM) 0.353 µM; (input ligand: none) 0.401 µM.

On to “GAGGUGUUAGGAUAUCGGAGAUGGAGACCGACGGGAUGAGCCGAGAAGGAACAUGAGGAUCACCCAUGUAGGUG [JR_Exclu4_Sub033] (puzzle: Exclusion 4)”, for which, under setting [1], the “apparent KD of MS2 coat protein” value was found to be 0.386 µM.

In the case of “GCGUACUGAGGAUAUACAUGAGGAUCACCCAUGUAACACAGCAUAUGUGAAGUUUUUUGUAGAAGGCAGUAUGC [JR_Ex3_Sub056] (Eterna round: R97, puzzle: Exclusion 3)”, the “apparent KD of MS2 coat protein” value was determined as 0.18 µM (input ligand: FMN 200 uM) and 0.0287 µM (input ligand: none).

For “UUUGGGCCUGUGAGGAUAUCGGGUUUGAAAGGGCCCGAGAAGGCACAUGAGGAUCACCCAUGUAAGGGCCCGGG [-32.7, -30.6 kcal, A 23%, 5a-5abis] (Eterna round: R97, puzzle: Brourd's mod of Exclusion 4)”, the “apparent KD of MS2 coat protein” value (input ligand: FMN 200 uM) was 0.0173 µM and the “apparent KD of MS2 coat protein” value (input ligand: none) turned out to be 0.0195 µM.

For “UAGCAAGCAAUAAGAUCCCACAUGAGGAUCACCCAUGUGCUCGUCUUAUAAAAGGUUUCGACGAAAACGUCGAGACC [Eli 91 v28] (Eterna round: R97, puzzle: Sensor, turn-off variant 1)”, the “apparent KD of MS2 coat protein” value is 0.0198 µM (input ligand: FMN 200 uM) and 0.016 µM (input ligand: none).

“GCUAGAGCAGGAUAUCUAGAUCCACACAUGAGGAUCACCCAUGUAUAGUCGAAAGACUAAAGAGAAGGGCUCUAGC [Omei Ex5 E14] (Eterna round: R97, puzzle: Exclusion 5)”: the “apparent KD of MS2 coat protein” value runs as follows: (input ligand: FMN 200 uM) 0.0727 µM; (input ligand: none) 0.0618 µM.

On to “UAUAAGGUAGGAUAUACGAAUAAAUAGGGUAGAAUAAUAACACAUGAGGAUCACCCAUGUAGAAGGACCAAUAG [Mat - Exclusion 2 - Mod of my Tesla design - D27] (puzzle: Exclusion 2)”, for which the “apparent KD of MS2 coat protein” value came out at 0.0589 µM under setting [2], 0.021 µM under setting [1] and 0.0172 µM under setting [3].

Consider “CUGAUGUUAGGAUAUCAGGCGCCCGCCACUAGCAAGGCGCAUGAGAAGGGACAUGAGGAUCACCCAUGUAGUAA [Xexeonza] (puzzle: Exclusion 4)”, for which the “apparent KD of MS2 coat protein” value under setting [1] came to 0.0277 µM.

Consider “UUUAAUUUUUUUUUUUUACAAGCUUUUUGCUCGUCUUAUACAUGAGGAUCACCCAUGUAGAUGGGAGGUAAAUUAUC [JMF 75] (puzzle: Sensor v3, turn-off variant 2)”, for which the “apparent KD of MS2 coat protein” value is 0.0291 µM under setting [2], 0.16 µM under setting [1] and 0.0257 µM under setting [3].

For the sequence “GGUCUGCGAGGAUAUACAUGAGGAUCACCCAUGUGCGAGAUACUAGUGAGGUCGAUUGGUAGAAGGCGCGGACG [JL-ex3-2.06 salish99 mod] (puzzle: Exclusion 3)”, the “apparent KD of MS2 coat protein” value is, setting by setting: under setting [2], 0.182 µM; under setting [1], 0.0864 µM; under setting [3], 0.0888 µM.

In the case of “AAGUACCGUCACGAUAGUGAUGGUACAACAAGCAAAUGUACAUGAGGAUCACCCAUGUCCUCUUUUGCUCGUCUUAU [Sensor 3 - 94] (puzzle: Sensor v3, turn-off variant 2)”, the “apparent KD of MS2 coat protein” value by setting is: under setting [2], 0.0533 µM; under setting [1], 0.0289 µM; under setting [3], 0.0538 µM.

As for “CUUAGACAUGAGGAUCACCCAUGUGAGGAUAUGAUGCAGCAGUGGUCUACGCUGUGCAUCAGAAGGCACAUAUG [mod of disincluded 3 v.3 (my top score 87 - 28% A's)] (puzzle: Exclusion 1)”, the “apparent KD of MS2 coat protein” value under setting [1] turned out to be 0.108 µM.

Turning to “UACAUGAGGAUCACCCAUGUUUUGUCGUGUAUGGUACCCGUUUAGGAUAUCGUGUUAUUGGACCGCGAGAAGGAGAGUAUCAUU [Excl-NG3-LRO05] (Eterna round: R96, puzzle: Exclusion NG 3)”, the “apparent KD of MS2 coat protein” value (input ligand: FMN 200 uM) was 0.024 µM, the “apparent KD of MS2 coat protein” value under setting [4] worked out at 0.03 µM and the “apparent KD of MS2 coat protein” value (input ligand: none) was 0.0316 µM.

Consider “AAGGGUGCUUUCAGAACGACAUGAGGAUCACCCAUGUAGACUGAGGAUAUCUACUUCUAAGGACGGGAGAAGGCAGUGUAAUGC [Ex NG3 #68] (Eterna round: R96, puzzle: Exclusion NG 3)”, for which the “apparent KD of MS2 coat protein” value (input ligand: FMN 200 uM) is 0.0231 µM, the “apparent KD of MS2 coat protein” value under setting [4] stood at 0.0195 µM and the “apparent KD of MS2 coat protein” value (input ligand: none) was 0.0216 µM.

On to “CACCGUUACACAGGAUAUGUUACAUGAGGAUCACCCAUGUAAUAAAUGAGAAUUUCGAAUGUAAUACAGAAGGGUGGAAUCGGC [Ostricism 73 - Jieux - Exclusion NG 2] (Eterna round: R96, puzzle: Exclusion NG 2)”, for which the “apparent KD of MS2 coat protein” value reads like this: (input ligand: FMN 200 uM) 0.0347 µM; under setting [4], 0.0279 µM; (input ligand: none) 0.0284 µM.

With “GCAGCUAGUUCAGGAUAUCAGCACGUUUAGUGCUGAGAAGGGAACAUGAGGAUCACCCAUGUGAUCAAUGCUGCAAUUUUAAUU [ENG1/12-A2] (Eterna round: R96, puzzle: Exclusion NG 1)”, the “apparent KD of MS2 coat protein” value is, setting by setting: (input ligand: FMN 200 uM) 1.47 µM; under setting [4], 0.776 µM; (input ligand: none) 0.717 µM.
